Test results taken from the supplement of paper PMC10567573.

B1: KCNK9 (parent)
chain: DVPDLQSVCSCTCYRSQDYGGRSV
B2: INTS3 (parent)
chain: KKREFRFHPIKETVVEEPVDITPY

Variants of: B1
Assay: protein stability index of a GFP-peptide fusion (GPS, HEK-293T) (PSI 1-6); higher = more stable
Settings: c terminus: a fixed tail appended
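Also: lentivirally expressed fusions sorted by FACS into six bins by GFP to DsRed ratio, PSI derived from sequencing read proportions per bin multiplied by bin number.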

Q: For DVPDLQSVCSCTCYRSQDYGGRSC [V24C], which protein stability index is on record?
A: The protein stability index was 1.49.

Q: Which protein stability index does the source give for DVPDLQSVCSCTCYRSQDYGGRSP [V24P] here?
A: Its protein stability index is 2.35.

Q: For DVPDLQSVCSCTCYRSQDYGGRSQ [V24Q], which protein stability index is on record?
A: The protein stability index was 1.72.

Q: For DVPDLQSVCSCTCYRSQDYGGRSA [V24A], which protein stability index is on record?
A: The protein stability index was 1.68.

Q: With DVPDLQSVCSCTCYRSQDYGGRSK [V24K] as the variant, how does the protein stability index read?
A: The protein stability index was 1.45.

Q: With DVPDLQSVCSCTCYRSQDYGGRSY [V24Y] as the variant, how does the protein stability index read?
A: The protein stability index was 1.49.

Q: Which protein stability index does the source give for DVPDLQSVCSCTCYRSQDYGGRSD [V24D] here?
A: Its protein stability index is 2.69.

Q: Which protein stability index does the source give for DVPDLQSVCSCTCYRSQDYGGRSF [V24F] here?
A: The protein stability index was 1.13.

Q: For DVPDLQSVCSCTCYRSQDYGGRSH [V24H], which protein stability index is on record?
A: The protein stability index was 1.64.

Q: Which protein stability index does the source give for DVPDLQSVCSCTCYRSQDYGGRSN [V24N] here?
A: The protein stability index was 2.5.

Q: For DVPDLQSVCSCTCYRSQDYGGRSI [V24I], which protein stability index is on record?
A: The protein stability index was 2.37.

Q: Which protein stability index does the source give for DVPDLQSVCSCTCYRSQDYGGRSS [V24S] here?
A: Its protein stability index is 1.68.

Q: For DVPDLQSVCSCTCYRSQDYGGRSL [V24L], which protein stability index is on record?
A: The protein stability index was 2.44.

Q: For DVPDLQSVCSCTCYRSQDYGGRSW [V24W], which protein stability index is on record?
A: The protein stability index was 2.42.

Q: For DVPDLQSVCSCTCYRSQDYGGRSE [V24E], which protein stability index is on record?
A: The protein stability index was 2.15.

Q: For DVPDLQSVCSCTCYRSQDYGGRST [V24T], which protein stability index is on record?
A: Its protein stability index is 2.73.

Q: With DVPDLQSVCSCTCYRSQDYGGRHV [S23H] as the variant, how does the protein stability index read?
A: The protein stability index was 1.67.

Q: For DVPDLQSVCSCTCYRSQDYGGRAV [S23A], which protein stability index is on record?
A: The protein stability index was 1.8.

Q: Which protein stability index does the source give for DVPDLQSVCSCTCYRSQDYGGRLV [S23L] here?
A: The protein stability index was 2.27.

Q: For DVPDLQSVCSCTCYRSQDYGGRCV [S23C], which protein stability index is on record?
A: Its protein stability index is 1.98.

Q: For DVPDLQSVCSCTCYRSQDYGGRFV [S23F], which protein stability index is on record?
A: Its protein stability index is 2.11.

Q: Which protein stability index does the source give for DVPDLQSVCSCTCYRSQDYGGRRV [S23R] here?
A: Its protein stability index is 1.48.

Q: For DVPDLQSVCSCTCYRSQDYGGRYV [S23Y], which protein stability index is on record?
A: Its protein stability index is 2.59.

Q: Which protein stability index does the source give for DVPDLQSVCSCTCYRSQDYGGRDV [S23D] here?
A: Its protein stability index is 2.1.

Q: For DVPDLQSVCSCTCYRSQDYGGRKV [S23K], which protein stability index is on record?
A: The protein stability index was 4.09.

Q: Which protein stability index does the source give for DVPDLQSVCSCTCYRSQDYGGRQV [S23Q] here?
A: The protein stability index was 2.12.

Q: For DVPDLQSVCSCTCYRSQDYGGRVV [S23V], which protein stability index is on record?
A: The protein stability index was 1.32.

Q: Which protein stability index does the source give for DVPDLQSVCSCTCYRSQDYGGRGV [S23G] here?
A: The protein stability index was 2.96.

Q: With DVPDLQSVCSCTCYRSQDYGGRIV [S23I] as the variant, how does the protein stability index read?
A: Its protein stability index is 3.17.

Q: For DVPDLQSVCSCTCYRSQDYGGRWV [S23W], which protein stability index is on record?
A: Its protein stability index is 2.53.

Q: Which protein stability index does the source give for DVPDLQSVCSCTCYRSQDYGGRNV [S23N] here?
A: Its protein stability index is 2.14.

Q: With DVPDLQSVCSCTCYRSQDYGSRSV [G21S] as the variant, how does the protein stability index read?
A: Its protein stability index is 3.41.

Q: Which protein stability index does the source give for DVPDLQSVCSCTCYRSQDYGVRSV [G21V] here?
A: The protein stability index was 2.16.

Q: For DVPDLQSVCSCTCYRSQDYGYRSV [G21Y], which protein stability index is on record?
A: The protein stability index was 2.08.

Q: For DVPDLQSVCSCTCYRSQDYGTRSV [G21T], which protein stability index is on record?
A: The protein stability index was 2.63.

Q: Which protein stability index does the source give for DVPDLQSVCSCTCYRSQDYGGCSV [R22C] here?
A: Its protein stability index is 2.38.

Q: With DVPDLQSVCSCTCYRSQDYGGASV [R22A] as the variant, how does the protein stability index read?
A: The protein stability index was 1.84.

Q: For DVPDLQSVCSCTCYRSQDYGGTSV [R22T], which protein stability index is on record?
A: The protein stability index was 1.89.

Q: With DVPDLQSVCSCTCYRSQDYGGWSV [R22W] as the variant, how does the protein stability index read?
A: Its protein stability index is 2.4.

Q: With DVPDLQSVCSCTCYRSQDYGGQSV [R22Q] as the variant, how does the protein stability index read?
A: Its protein stability index is 3.22.

Q: With DVPDLQSVCSCTCYRSQDYGGVSV [R22V] as the variant, how does the protein stability index read?
A: Its protein stability index is 2.82.

Q: Which protein stability index does the source give for DVPDLQSVCSCTCYRSQDYGGDSV [R22D] here?
A: Its protein stability index is 3.58.

Q: For DVPDLQSVCSCTCYRSQDYGGLSV [R22L], which protein stability index is on record?
A: Its protein stability index is 3.27.

Q: Which protein stability index does the source give for DVPDLQSVCSCTCYRSQDYGGSSV [R22S] here?
A: Its protein stability index is 2.2.

Q: With DVPDLQSVCSCTCYRSQDYGGESV [R22E] as the variant, how does the protein stability index read?
A: The protein stability index was 3.3.

Q: For DVPDLQSVCSCTCYRSQDYGGMSV [R22M], which protein stability index is on record?
A: The protein stability index was 2.04.

Q: For DVPDLQSVCSCTCYRSQDYGGNSV [R22N], which protein stability index is on record?
A: The protein stability index was 2.6.

Q: For DVPDLQSVCSCTCYRSQDYGGYSV [R22Y], which protein stability index is on record?
A: The protein stability index was 1.47.

Q: For DVPDLQSVCSCTCYRSQDYGGPSV [R22P], which protein stability index is on record?
A: Its protein stability index is 2.16.

Q: For DVPDLQSVCSCTCYRSQDYGGKSV [R22K], which protein stability index is on record?
A: The protein stability index was 3.06.

Q: With DVPDLQSVCSCTCYRSQDYGGFSV [R22F] as the variant, how does the protein stability index read?
A: The protein stability index was 1.33.

Q: For DVPDLQSVCSCTCYRSQDYGGGSV [R22G], which protein stability index is on record?
A: Its protein stability index is 2.06.

Q: With DVPDLQSVCSCTCYRSQDYGGHSV [R22H] as the variant, how does the protein stability index read?
A: The protein stability index was 2.43.

Q: Which protein stability index does the source give for DVPDLQSVCSCTCYRSQDYGGISV [R22I] here?
A: The protein stability index was 1.93.

Variants of: B2
Assay: as above
Settings: c terminus: a fixed tail appended

Q: With KKRRFRFHPIKETVVEEPVDITPY [E4R] as the variant, how does the protein stability index read?
A: Its protein stability index is 2.86.

Q: With KKRTFRFHPIKETVVEEPVDITPY [E4T] as the variant, how does the protein stability index read?
A: Its protein stability index is 2.07.

Q: For KKRMFRFHPIKETVVEEPVDITPY [E4M], which protein stability index is on record?
A: Its protein stability index is 2.04.

Q: Which protein stability index does the source give for KKRHFRFHPIKETVVEEPVDITPY [E4H] here?
A: Its protein stability index is 1.9.

Q: Which protein stability index does the source give for KKRGFRFHPIKETVVEEPVDITPY [E4G] here?
A: The protein stability index was 1.54.

Q: With KKRWFRFHPIKETVVEEPVDITPY [E4W] as the variant, how does the protein stability index read?
A: Its protein stability index is 1.41.

Q: With KKRNFRFHPIKETVVEEPVDITPY [E4N] as the variant, how does the protein stability index read?
A: Its protein stability index is 1.48.

Q: Which protein stability index does the source give for KKRCFRFHPIKETVVEEPVDITPY [E4C] here?
A: The protein stability index was 3.03.

Q: Which protein stability index does the source give for KKRFFRFHPIKETVVEEPVDITPY [E4F] here?
A: The protein stability index was 1.94.

Q: For KKRLFRFHPIKETVVEEPVDITPY [E4L], which protein stability index is on record?
A: The protein stability index was 1.79.

Q: Which protein stability index does the source give for KKRAFRFHPIKETVVEEPVDITPY [E4A] here?
A: The protein stability index was 2.29.

Q: Which protein stability index does the source give for KKRIFRFHPIKETVVEEPVDITPY [E4I] here?
A: The protein stability index was 2.05.

Q: Which protein stability index does the source give for KKRVFRFHPIKETVVEEPVDITPY [E4V] here?
A: The protein stability index was 1.27.

Q: With KKRKFRFHPIKETVVEEPVDITPY [E4K] as the variant, how does the protein stability index read?
A: Its protein stability index is 2.79.

Q: For KKRYFRFHPIKETVVEEPVDITPY [E4Y], which protein stability index is on record?
A: The protein stability index was 1.81.

Q: For KKRPFRFHPIKETVVEEPVDITPY [E4P], which protein stability index is on record?
A: Its protein stability index is 2.62.

Q: With KKRSFRFHPIKETVVEEPVDITPY [E4S] as the variant, how does the protein stability index read?
A: The protein stability index was 1.33.

Q: For KKRDFRFHPIKETVVEEPVDITPY [E4D], which protein stability index is on record?
A: Its protein stability index is 2.06.

Q: For KKRQFRFHPIKETVVEEPVDITPY [E4Q], which protein stability index is on record?
A: Its protein stability index is 2.36.

Q: Which protein stability index does the source give for KTREFRFHPIKETVVEEPVDITPY [K2T] here?
A: The protein stability index was 2.14.

Q: For KNREFRFHPIKETVVEEPVDITPY [K2N], which protein stability index is on record?
A: The protein stability index was 1.82.

Q: For KWREFRFHPIKETVVEEPVDITPY [K2W], which protein stability index is on record?
A: The protein stability index was 2.03.

Q: Which protein stability index does the source give for KSREFRFHPIKETVVEEPVDITPY [K2S] here?
A: Its protein stability index is 2.38.

Q: With KYREFRFHPIKETVVEEPVDITPY [K2Y] as the variant, how does the protein stability index read?
A: Its protein stability index is 1.6.

Q: For KCREFRFHPIKETVVEEPVDITPY [K2C], which protein stability index is on record?
A: The protein stability index was 1.9.

Q: Which protein stability index does the source give for KLREFRFHPIKETVVEEPVDITPY [K2L] here?
A: The protein stability index was 1.83.

Q: With KRREFRFHPIKETVVEEPVDITPY [K2R] as the variant, how does the protein stability index read?
A: Its protein stability index is 2.29.

Q: With KGREFRFHPIKETVVEEPVDITPY [K2G] as the variant, how does the protein stability index read?
A: The protein stability index was 2.11.

Q: Which protein stability index does the source give for KIREFRFHPIKETVVEEPVDITPY [K2I] here?
A: The protein stability index was 2.55.

Q: Which protein stability index does the source give for KDREFRFHPIKETVVEEPVDITPY [K2D] here?
A: Its protein stability index is 2.53.

Q: Which protein stability index does the source give for KFREFRFHPIKETVVEEPVDITPY [K2F] here?
A: Its protein stability index is 2.08.

Q: Which protein stability index does the source give for KPREFRFHPIKETVVEEPVDITPY [K2P] here?
A: Its protein stability index is 2.5.

Q: Which protein stability index does the source give for KVREFRFHPIKETVVEEPVDITPY [K2V] here?
A: Its protein stability index is 1.37.

Q: Which protein stability index does the source give for KHREFRFHPIKETVVEEPVDITPY [K2H] here?
A: Its protein stability index is 1.67.

Q: With KMREFRFHPIKETVVEEPVDITPY [K2M] as the variant, how does the protein stability index read?
A: The protein stability index was 2.2.

Q: With KAREFRFHPIKETVVEEPVDITPY [K2A] as the variant, how does the protein stability index read?
A: The protein stability index was 1.56.

Q: For KQREFRFHPIKETVVEEPVDITPY [K2Q], which protein stability index is on record?
A: The protein stability index was 2.17.

Q: Which protein stability index does the source give for KEREFRFHPIKETVVEEPVDITPY [K2E] here?
A: The protein stability index was 2.55.

Q: For KKRERRFHPIKETVVEEPVDITPY [F5R], which protein stability index is on record?
A: The protein stability index was 4.56.

Q: For KKRELRFHPIKETVVEEPVDITPY [F5L], which protein stability index is on record?
A: Its protein stability index is 4.01.
